# Ends that are not written are not given here. * marks the point of attachment. Biotin = O=C1N[C@H]2[C@H](CS[C@H]2CCCCC(=O)*)N1
# Assays:
# GST-PSD95 PDZ domain 3 = target: T1, GST-PSD95 PDZ domain 3 (human); assay: G assay
# T1 construct: also called PSD95 d3; PSD95 domain 3
# GST-PSD95 PDZ domain 1 [1] = target: T2, GST-PSD95 PDZ domain 1 (human); assay: G assay with MBP-nNOS, anti-MBP-HRP detection, FIG. 11
# T2 construct: also called PSD95 d1; PSD-95 d1
# Description: This protein was used in the G assay in place of a labeled peptide to assess the interaction between PSD95 domains 1 and 2 and nNOS, and detection was performed using an HRP-conjugated antibody against MBP. […] MBP/PSD95 indicates a negative control containing MBP without the nNOS sequences.
# GST-PSD95 PDZ domain 1 [2] = target: T2, GST-PSD95 PDZ domain 1; assay: G assay
# GST-PSD95 PDZ domain 2 [3] = target: T3, GST-PSD95 PDZ domain 2 (human); assay: G assay
# T3 construct: also called PSD95 d2; PSD-95 d2
# GST-PSD95 PDZ domain 2 [4] = target: T3, GST-PSD95 PDZ domain 2; assay: G assay competition against NMDAR2A or R2B peptide, FIG. 10
# T1 sequence (chain, as listed by the source): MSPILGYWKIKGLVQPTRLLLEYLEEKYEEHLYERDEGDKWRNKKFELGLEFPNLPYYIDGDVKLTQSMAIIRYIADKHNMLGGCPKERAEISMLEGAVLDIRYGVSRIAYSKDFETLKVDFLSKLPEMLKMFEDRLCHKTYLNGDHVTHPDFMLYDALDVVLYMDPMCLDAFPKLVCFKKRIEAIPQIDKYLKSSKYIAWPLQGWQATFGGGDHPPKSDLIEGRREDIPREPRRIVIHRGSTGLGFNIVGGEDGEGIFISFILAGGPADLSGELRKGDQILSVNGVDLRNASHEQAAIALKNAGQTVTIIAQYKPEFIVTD
# T2 sequence (chain, as listed by the source): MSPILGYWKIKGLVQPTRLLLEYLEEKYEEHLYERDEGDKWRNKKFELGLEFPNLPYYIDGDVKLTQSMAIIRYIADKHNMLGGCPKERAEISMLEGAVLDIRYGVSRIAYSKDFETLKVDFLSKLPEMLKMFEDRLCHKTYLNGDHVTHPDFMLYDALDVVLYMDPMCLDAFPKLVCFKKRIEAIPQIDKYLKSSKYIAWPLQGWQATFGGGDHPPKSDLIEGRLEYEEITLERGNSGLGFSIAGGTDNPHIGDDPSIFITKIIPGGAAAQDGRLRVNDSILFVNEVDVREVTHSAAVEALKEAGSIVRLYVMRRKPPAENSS
Binder,Average OD (GST-PSD95 PDZ domain 3) [OD],binding result (GST-PSD95 PDZ domain 1 [1]),Average OD (GST-PSD95 PDZ domain 1 [2]) [OD],Average OD (GST-PSD95 PDZ domain 2 [3]) [OD],IC50 (GST-PSD95 PDZ domain 2 [4]) [nM]
Biotin-ESSGTQSPKRHSGSYLVTSV [ESSGTQSPKRHSGSYLVTSV peptide],0.7,,,,
"Maltose Binding Protein (MBP) fused to amino acids 1-120 of nNOS (other, UniProt P29475 1-120, looked up, not shown: large carriers, range 1-120; also called MBP-nNOS; internal PL of nNOS) MEDHMFGVQQIQPNVISVRLFKRKVGGLGFLVKERVSKPPVIISDLIRGGAAEQSGLIQAGDIILAVNGRPLVDLSYDSALEVLRGIASETHVVLILRGPEGFTTHLETTFTGDGTPKTI",,no binding,,,
YGRKKRRQRRREKHFRETEV (also: N-terminal biotin when used as labelled ligand) [TatTAX: TAT transporter sequence coupled to the C-terminal 9 amino acids of Tax],2.93,,2.81,2.79,100 to 1000

# — US20110039758A1 (published 2011)
